Assay results reported in the supplement of paper PMC6379048.
pEC50: −log10 of the molar value.

Experiments:
Assay in all cases: EC50 of free RNA motif oligo competing protein binding to immobilised probe
RBMS3 = target: T1, RBMS3 (UniProt Q6XE24)
T1 sequence: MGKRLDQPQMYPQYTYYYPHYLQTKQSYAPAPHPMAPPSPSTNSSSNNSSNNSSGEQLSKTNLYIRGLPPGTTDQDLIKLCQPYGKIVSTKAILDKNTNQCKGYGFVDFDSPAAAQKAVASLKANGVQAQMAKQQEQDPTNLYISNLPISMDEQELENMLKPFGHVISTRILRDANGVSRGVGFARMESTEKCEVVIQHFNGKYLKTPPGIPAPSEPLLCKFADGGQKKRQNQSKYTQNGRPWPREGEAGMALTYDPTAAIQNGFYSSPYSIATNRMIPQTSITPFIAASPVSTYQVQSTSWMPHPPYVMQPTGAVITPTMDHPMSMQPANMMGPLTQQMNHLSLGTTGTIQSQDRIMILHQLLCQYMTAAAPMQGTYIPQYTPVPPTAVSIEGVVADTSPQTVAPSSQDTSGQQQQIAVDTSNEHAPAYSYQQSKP
Procedure, shortened: (§1)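 To obtain EC50, data were fitted with a four-parameter log-logistic model; Kd was then EC50 multiplied by a protein-dependent depletion factor. Beforehand, free RNA oligos (0 nM to 30 μM) were pre-incubated with HEK293-FT lysate (2.5 mg protein/well) for 1 h at 4°C. The lysate then spent 30 min at 4°C with the same 5′-amino-C6 oligos coupled to NHS-Sepharose beads, and bound proteins were quantified by label-free LC-MS/MS, normalised to the control.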

LSM7 = target: T2, LSM7 (UniProt Q9UK45)
T2 sequence: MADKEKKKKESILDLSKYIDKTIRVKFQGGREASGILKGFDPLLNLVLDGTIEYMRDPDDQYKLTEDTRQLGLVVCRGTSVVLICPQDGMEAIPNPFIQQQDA
Procedure, shortened: as §1

LRPPRC = LRPPRC (UniProt P42704)
Procedure, shortened: as §1

MEX3B = target: T3, MEX3B (UniProt Q6ZN04)
T3 sequence: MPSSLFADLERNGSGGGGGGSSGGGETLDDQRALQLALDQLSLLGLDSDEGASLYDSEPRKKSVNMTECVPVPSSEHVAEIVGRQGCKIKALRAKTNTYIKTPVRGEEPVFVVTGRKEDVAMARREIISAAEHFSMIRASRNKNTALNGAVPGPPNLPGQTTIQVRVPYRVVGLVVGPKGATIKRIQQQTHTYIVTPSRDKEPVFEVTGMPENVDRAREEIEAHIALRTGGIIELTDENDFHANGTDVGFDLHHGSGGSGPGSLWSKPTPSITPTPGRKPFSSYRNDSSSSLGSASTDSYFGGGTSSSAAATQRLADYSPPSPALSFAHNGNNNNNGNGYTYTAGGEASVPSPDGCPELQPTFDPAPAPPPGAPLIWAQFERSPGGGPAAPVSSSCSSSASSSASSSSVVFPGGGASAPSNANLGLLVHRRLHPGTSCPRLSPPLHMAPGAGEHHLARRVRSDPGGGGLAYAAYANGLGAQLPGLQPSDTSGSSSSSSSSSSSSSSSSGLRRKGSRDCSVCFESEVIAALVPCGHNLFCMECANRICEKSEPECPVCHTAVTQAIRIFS
Procedure, shortened: as §1

LSM6 = target: T4, LSM6 (UniProt P62312)
T4 sequence: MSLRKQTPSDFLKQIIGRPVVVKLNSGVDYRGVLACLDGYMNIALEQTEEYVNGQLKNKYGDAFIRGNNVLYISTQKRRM
Procedure, shortened: as §1

PABPC1 = PABPC1 (UniProt P11940)
Procedure, shortened: as §1

XAB2 = target: T5, XAB2 (UniProt Q9HCS7)
T5 sequence: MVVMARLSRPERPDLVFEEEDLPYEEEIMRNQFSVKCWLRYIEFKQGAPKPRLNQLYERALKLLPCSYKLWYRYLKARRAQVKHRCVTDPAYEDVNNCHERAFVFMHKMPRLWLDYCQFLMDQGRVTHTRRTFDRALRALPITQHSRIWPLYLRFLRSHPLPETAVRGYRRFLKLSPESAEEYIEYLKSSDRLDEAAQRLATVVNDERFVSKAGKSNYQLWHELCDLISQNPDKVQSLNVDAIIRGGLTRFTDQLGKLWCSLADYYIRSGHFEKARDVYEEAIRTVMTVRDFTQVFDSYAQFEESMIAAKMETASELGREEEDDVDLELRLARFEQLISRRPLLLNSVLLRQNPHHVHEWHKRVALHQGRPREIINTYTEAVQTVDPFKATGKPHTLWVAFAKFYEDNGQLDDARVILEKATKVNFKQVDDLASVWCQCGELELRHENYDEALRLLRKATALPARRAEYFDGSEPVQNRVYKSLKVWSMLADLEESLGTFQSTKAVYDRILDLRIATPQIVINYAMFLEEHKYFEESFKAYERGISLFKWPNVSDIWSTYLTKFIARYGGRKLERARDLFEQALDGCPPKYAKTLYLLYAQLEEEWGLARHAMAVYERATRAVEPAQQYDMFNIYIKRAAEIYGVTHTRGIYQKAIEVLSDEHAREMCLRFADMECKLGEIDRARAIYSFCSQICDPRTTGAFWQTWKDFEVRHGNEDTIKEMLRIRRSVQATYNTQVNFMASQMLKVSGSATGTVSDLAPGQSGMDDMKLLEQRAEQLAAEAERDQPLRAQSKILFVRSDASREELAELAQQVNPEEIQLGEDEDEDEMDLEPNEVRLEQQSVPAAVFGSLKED
Procedure, shortened: as §1

SRSF9 = SRSF9 (UniProt Q13242)
Procedure, shortened: as §1

Sequence of PABPC1 (P11940 whole entry): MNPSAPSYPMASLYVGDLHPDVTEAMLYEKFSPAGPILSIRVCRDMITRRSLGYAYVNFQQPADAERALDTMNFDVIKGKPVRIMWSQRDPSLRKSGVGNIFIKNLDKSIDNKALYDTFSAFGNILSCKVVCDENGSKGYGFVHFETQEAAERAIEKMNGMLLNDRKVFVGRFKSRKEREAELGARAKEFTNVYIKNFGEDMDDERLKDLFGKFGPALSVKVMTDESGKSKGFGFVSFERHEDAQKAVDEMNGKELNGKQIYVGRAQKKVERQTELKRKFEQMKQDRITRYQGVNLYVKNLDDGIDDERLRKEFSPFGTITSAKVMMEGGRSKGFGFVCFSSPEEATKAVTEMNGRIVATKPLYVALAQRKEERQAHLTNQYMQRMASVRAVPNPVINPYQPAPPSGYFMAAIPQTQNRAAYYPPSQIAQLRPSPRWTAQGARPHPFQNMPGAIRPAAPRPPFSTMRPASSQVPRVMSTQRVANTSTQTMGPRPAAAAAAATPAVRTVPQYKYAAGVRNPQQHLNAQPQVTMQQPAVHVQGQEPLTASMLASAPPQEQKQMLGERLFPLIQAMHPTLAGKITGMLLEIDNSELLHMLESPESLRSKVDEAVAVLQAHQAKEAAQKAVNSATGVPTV
Sequence of SRSF9 (Q13242 whole entry): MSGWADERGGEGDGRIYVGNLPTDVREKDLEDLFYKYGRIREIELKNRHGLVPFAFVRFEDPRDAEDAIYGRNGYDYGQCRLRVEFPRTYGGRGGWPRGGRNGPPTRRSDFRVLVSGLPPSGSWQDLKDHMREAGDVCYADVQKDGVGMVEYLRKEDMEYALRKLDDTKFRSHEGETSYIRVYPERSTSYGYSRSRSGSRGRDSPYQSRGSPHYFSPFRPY

## AAUAAA
RBMS3
  pEC50: 5.93
LSM7
  pEC50: 6.18
LRPPRC
  pEC50: 5.54
MEX3B
  pEC50: 5.78
LSM6
  pEC50: 6.10
PABPC1
  pEC50: 5.00
XAB2
  pEC50: 5.86

## CUGUCCU
SRSF9
  pEC50: 5.34
LRPPRC
  pEC50: 5.64
PABPC1
  pEC50: 6.70

## UAUUUAU
RBMS3
  pEC50: 6.56
LSM7
  pEC50: 6.52
SRSF9
  pEC50: 5.10
MEX3B
  pEC50: 6.14
LSM6
  pEC50: 6.35
XAB2
  pEC50: 6.22
